The text below walks through data of PMC10766783 (Life Science Alliance, 2024).

Read-outs that look alike come from different tables or passages of the source.

The target in assay [1] is cemiplimab. The assay can be described thus: BLI; Octet RED96; antibodies captured on anti-human Fc AHC2 tips, PD-1 proteins as analyte at different concentrations; Octet kinetics buffer; 1:1 binding model. For orientation: Biolayer interferometry detects binding as a change in optical thickness at a sensor tip.
Assay [2] addresses camrelizumab. The description is as above.
The target in assay [3] is pembrolizumab. The assay is described as above.
Sequence of pembrolizumab (heavy, as listed by the source, chain 1 of 2): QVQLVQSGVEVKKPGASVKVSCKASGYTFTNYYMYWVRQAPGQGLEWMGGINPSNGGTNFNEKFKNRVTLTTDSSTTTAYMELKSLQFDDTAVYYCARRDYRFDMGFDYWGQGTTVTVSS
Sequence of pembrolizumab (light, as listed by the source, chain 2 of 2): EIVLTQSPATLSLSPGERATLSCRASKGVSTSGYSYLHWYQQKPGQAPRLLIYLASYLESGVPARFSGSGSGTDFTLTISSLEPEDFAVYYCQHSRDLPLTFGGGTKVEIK
The target in assay [4] is nivolumab. Described as above.
Sequence of nivolumab (heavy, as listed by the source, chain 1 of 2): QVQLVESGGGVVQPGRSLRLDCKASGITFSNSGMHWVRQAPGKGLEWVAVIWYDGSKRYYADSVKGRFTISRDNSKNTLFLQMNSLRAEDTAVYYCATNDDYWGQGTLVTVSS
Sequence of nivolumab (light, as listed by the source, chain 2 of 2): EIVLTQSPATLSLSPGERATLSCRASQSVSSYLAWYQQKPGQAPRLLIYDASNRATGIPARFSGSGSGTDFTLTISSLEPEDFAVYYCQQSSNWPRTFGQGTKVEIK
Assay [5] addresses T1, PD-1 on Jurkat-Lucia TCR-hPD-1 cells (Homo sapiens, UniProt Q15116).
For assay [6], the target named is non-fucosylated recombinant PD-1 (PD-1 NF) (human) (UniProt Q15116). Nature of the assay: ELISA; plate-based ligand blocking: plates coated with 5 ug/ml PD-1, PD-1 NF or PD-1 N58Q; antibodies 1 h at room temperature, washed, then 1 ug/ml PD-L1-Fc-biotin 2 h; streptavidin-HRP.
Sequence of non-fucosylated recombinant PD-1 (PD-1 NF) (human) (Q15116 24-167): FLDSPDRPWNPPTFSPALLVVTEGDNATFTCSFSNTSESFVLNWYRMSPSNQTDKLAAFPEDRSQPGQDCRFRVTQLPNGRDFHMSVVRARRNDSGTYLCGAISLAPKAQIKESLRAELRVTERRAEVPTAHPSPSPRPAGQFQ
The target in assay [7] is T2, recombinant PD-1 N58Q mutant (human, UniProt Q15116, N58Q).
T2 construct: PD-1, human, UniProt Q15116, residues 24-167 of the extracellular portion, N58Q; source: Expi293, transiently transfected, purified (Ni Sepharose Excel)
T2 sequence (Q15116 24-167 N58Q): as the sequence (Q15116 24-167) above, with N35Q counted along it
Nature of the assay: BLI; Octet RED96; antibodies captured on anti-human Fc AHC2 tips, PD-1 proteins as analyte at different concentrations; Octet kinetics buffer; 1:1 binding model. As to conditions: both partners purified.

Assay [8] concerns the target T2, recombinant PD-1 N58Q mutant. Nature of the assay: ELISA; plate-based ligand blocking: plates coated with 5 ug/ml PD-1, PD-1 NF or PD-1 N58Q; antibodies 1 h at room temperature, washed, then 1 ug/ml PD-L1-Fc-biotin 2 h; streptavidin-HRP. The note with it: both partners purified. On the technique in general: ELISA stands for enzyme-linked immunosorbent assay.
Assay [9] has as its target T3, chimeric receptor with the extracellular and transmembrane domains of PD-1 and intracellular GFP, on CHO-K1 … (Homo sapiens, UniProt Q15116, N-glycans without core fucose (Fut8 KO host)).
T3 construct: PD-1, human, extracellular and transmembrane domains; differs in the host and so in the glycans; also called cell surface PD-1 (CHO-K1 Fut8 KO); source: CHO-K1 Fut8 KO, transfected, on cells
Nature of the assay: flow cytometry on cells; antibodies added to CHO-K1 or CHO-K1 Fut8 KO cells transfected with PD-1 (extracellular and transmembrane domains)-GFP, 30 min on ice; binding as percentage of PD-1 expression in GFP-positive cells; four-parameter logistic fit. The note with it: one partner purified. Background: Flow cytometry measures light scatter and fluorescence of single cells or particles in a stream.

Assay [10] deals with T4, full-length PD-1 on CHO-K1 Fut8 KO cells (human, UniProt Q15116, N-glycans without core fucose (Fut8 KO host)).
T4 construct: PD-1, human, full length, on transfected cells; also called PD-1 expressed in CHO-K1 Fut8 KO; Fut8-deficient cells; source: CHO-K1 Fut8 KO, transfected, on cells
T4 sequence (Q15116 25-288): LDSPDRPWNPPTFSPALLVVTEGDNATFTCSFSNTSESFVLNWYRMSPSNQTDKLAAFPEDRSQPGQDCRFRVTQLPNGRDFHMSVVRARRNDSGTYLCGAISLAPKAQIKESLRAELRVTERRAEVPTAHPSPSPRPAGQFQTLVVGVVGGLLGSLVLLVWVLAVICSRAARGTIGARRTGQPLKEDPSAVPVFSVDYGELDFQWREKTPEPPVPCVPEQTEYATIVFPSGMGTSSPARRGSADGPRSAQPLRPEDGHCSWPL
The assay can be described thus: flow cytometry on cells; ligand blocking: PD-1-transfected CHO-K1 or CHO-K1 Fut8 KO cells incubated with antibodies 15 min on ice before PD-L1:SA-PE complexes; four-parameter logistic fit. As to conditions: one partner purified.

Assay [11] addresses T1, PD-1 on Jurkat-Lucia TCR-hPD-1 cells. The assay can be described thus: cell-based or functional assay.

T1 sequence (Q15116 25-288): as above
T3 sequence (Q15116 whole entry, looked up, stated change not applied, the tested form may be a part): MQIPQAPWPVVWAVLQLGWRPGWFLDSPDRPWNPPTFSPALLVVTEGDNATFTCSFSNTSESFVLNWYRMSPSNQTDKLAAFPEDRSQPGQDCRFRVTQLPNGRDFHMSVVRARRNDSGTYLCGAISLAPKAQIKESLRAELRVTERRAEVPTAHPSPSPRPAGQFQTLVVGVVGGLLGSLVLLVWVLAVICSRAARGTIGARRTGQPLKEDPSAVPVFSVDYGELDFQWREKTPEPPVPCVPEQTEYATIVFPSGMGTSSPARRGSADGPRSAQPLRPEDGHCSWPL

As to “recombinant PD-1 (extracellular portion of human PD-1, residues 24-167) (from UniProt Q15116 24-167) (domain or fragment)”, the Kd was 2.95 nM in assay [1] and 3.41 nM in assay [2].

For the molecule “non-fucosylated recombinant PD-1 (PD-1 NF) (from UniProt Q15116 24-167) (domain or fragment)”, the Kd in assay [1] is 87.1 nM; in assay [3], 3.67 nM; in assay [4] it was 20.8 nM; in assay [2], 380 nM.

B1: cemiplimab (antibody, V domains shown)
VH: EVQLLESGGVLVQPGGSLRLSCAASGFTFSNFGMTWVRQAPGKGLEWVSGISGGGRDTYFADSVKGRFTISRDNSKNTLYLQMNSLKGEDTAVYYCVKWGNIYFDYWGQGTLVTVSS
VL: DIQMTQSPSSLSASVGDSITITCRASLSINTFLNWYQQKPGKAPNLLIYAASSLHGGVPSRFSGSGSGTDFTLTIRTLQPEDFATYYCQQSSNTPFTFGPGTVVDFR
notes: Whole therapeutic anti-human PD-1 antibody; The PDB entry may hold only the variable part; source: bought: Selleck Chemicals
For the molecule B1, in assay [5], the PD-1/PD-L1 reporter assay (Jurkat-Lucia TCR-hPD-1 with Raji-APC-hPD-L1, luciferase): blockade of PD-1:PD-L1, fold change of IC50, Jurkat cells pretreated with the fucose inhibitor against untreated was determined as 2.4 fold. For the same molecule, the half-inhibitory concentration (IC50) turned out to be 0.6 nM in assay [6], 1.4 nM in assay [8] and 2.6 nM in assay [10]. The dissociation constant Kd in assay [7] turned out to be 260 nM. Further, the “fold change in EC50 (CHO-K1 Fut8 KO against wild-type CHO-K1)” value in assay [9] is 1.3 fold.

B2: camrelizumab (antibody, V domains shown)
VH: EVQLVESGGGLVQPGGSLRLSCAASGFTFSSYMMSWVRQAPGKGLEWVATISGGGANTYYPDSVKGRFTISRDNAKNSLYLQMNSLRAEDTAVYYCARQLYYFDYWGQGTTVTVSS
VL: DIQMTQSPSSLSASVGDRVTITCLASQTIGTWLTWYQQKPGKAPKLLIYTATSLADGVPSRFSGSGSGTDFTLTISSLQPEDFATYYCQQVYSIPWTFGGGTKVEIK
notes: Whole therapeutic anti-human PD-1 antibody; a human IgG4 isotype was the control and anti-human IgG4 or anti-human IgG the detection reagent; The PDB entry may hold only the variable part; source: bought: Selleck Chemicals
Consider B2, for which the concentration for half-maximal inhibition (IC50) in assay [6] amounted to 1.5 nM; in assay [8], 18 nM; in [10] it was 5.6 nM. The Kd in assay [7] turned out to be 449 nM. Moreover, in assay [11], the “PD-1/PD-L1 reporter assay (Jurkat-Lucia TCR-hPD-1 with Raji-APC-hPD-L1, luciferase): blockade of PD-1:PD-L1, fold change of IC50, Jurkat cells pretreated with the fucose inhibitor against untreated” value is 2.8 fold. For the same molecule, the “fold change in EC50 (CHO-K1 Fut8 KO against wild-type CHO-K1)” value in assay [9] was 3 fold.

One may read the Kd as a measure of binding affinity in units of concentration. One may read the IC50 as the concentration that inhibits the measured activity by half.
